Measured values reported in patent publication US20250011363A1, “OPTIMIZED SHORTENED PEPTIDE THAT BINDS TO ACETYLCHOLINE RECEPTOR, AND USE THEREOF” (SKINMED CO., LTD., priority 2021, published 2025).

target: acetylcholine receptor; assay: SPR, peptide at 10 uM on immobilized AchR

| Binding affinity (RU) | Binder |
| --- | --- |
| 23 | RFWEKK [6mer-2-1097] |
| 43 | KAWERK [6mer-2-1094] |
| 34 | KMTIKK [6mer-2-1077] |
| 29 | REKPRK [6mer-2-1084] |
| 39 | KYSMRR [6mer-2-1095] |
| 43 | RKTDRR [6mer-2-1089] |
| 39 | RPCEKK [6mer-2-1088] |
| 40 | KCNEKK [6mer-2-1079] |
| 39 | RANVKR [6mer-2-1096] |
| 42 | RPEIRK [6mer-2-1085] |
| 21 | KNDWRK [6mer-2-1086] |
| 31 | RHMERK [6mer-2-1075] |
| 21 | KEEMRR [6mer-2-1087] |
| 31 | KYTERR [6mer-2-1082] |
| 28 | KHPKRR [6mer-2-1098] |
| 40 | KDTFRR [6mer-2-1078] |
| 32 | KYKMRR [6mer-2-1081] |
| 34 | RYCIRR [6mer-2-1076] |
| 43 | KTTDKK [6mer-2-1093] |
| 23 | RKHKKK [6mer-2-1080] |
| 39 | KTKGKR [6mer-2-1083] |
| 31 | RFDNKR [6mer-2-1091] |
| 21 | RAKFRR [6mer-2-1092] |
| 33 | KEMHKK [6mer-2-1090] |

target: acetylcholine receptor; assay: SPR, AchR immobilized on chip, peptide 10 uM

| Binding affinity (RU) | Binder |
| --- | --- |
| 57 | RGVTR [5mer-464] |
| 69 | RWQSK [5mer-462] |
| 52 | KWYTK [5mer-463] |
| 74 | RLQQR [5mer-460] |
| 65 | RRFLK [5mer-458] |
| 52 | RLVCK [5mer-456] |
| 76 | RSQLR [5mer-459] |
| 59 | RGQYK [5mer-457] |
| 74 | KQLLK [5mer-461] |

The remaining lines, values behind:

| Binder | Binding affinity (RU) |
| --- | --- |
| RRRRR [5mer-152] | 56 |
| KWRSK [5mer-165] | 56 |
| KGLYR [5mer-449] | 65 |
| RGQRR [5mer-159] | 73 |
| RVRTR [5mer-150] | 64 |
| RQVLR [5mer-454] | 77 |
| KGRCR [5mer-157] | 78 |
| RVIQK [5mer-450] | 78 |
| KGLRK [5mer-156] | 85 |
| KSLCK [5mer-163] | 61 |
| KQFLR [5mer-149] | 80 |
| KRYLR [5mer-155] | 57 |
| KGVCR [5mer-453] | 68 |
| RWLYK [5mer-455] | 61 |
| RSIQK [5mer-153] | 72 |
| RWQTK [5mer-158] | 65 |
| RGVSK [5mer-452] | 82 |
| RSIRR [5mer-160] | 53 |
| RQVLK [5mer-451] | 53 |
| RGYQR [5mer-162] | 51 |
| RVFTK [5mer-151] | 66 |
| KWVTK [5mer-161] | 52 |
| RSITR [5mer-154] | 54 |
| KSICK [5mer-164] | 54 |
